{"source": "the domain aggregation screens of Martell et al. (2025)", "data": [{"test": "soluble fraction after stress (log2 fold change); higher = more stays soluble; pooled small domains, quantitative proteomics", "conditions": "stress: 50 degC", "procedure,_shortened": "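Pooled custom libraries of small protein domains were each held under stress at 50°C. The read-out, high-throughput quantitative proteomics, tracked how much of each protein stayed soluble. This is reported as a base-two log fold change used to indicate aggregation propensity. Higher values mean more protein remains in solution.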", "values": [{"sequence": "HMDSPALAIPSSAILRDGLEHIFFRQDPSDPDQVIRVVADLGLSDGRWTVVRSGLERTDQVVLSGA", "soluble fraction (log2)": 0.0102}, {"sequence": "HMDSQKKNETLSSTADEIIKNYAGKRDLSEESMEQLEQFQKDMRGADVNIFTAAQIRMLDQIFQENLH", "soluble fraction (log2)": -0.0243}, {"sequence": "HMDSSLVWVDYLLGSKLTKLNSSNELTGPGASAKTIGAFLGENKQSFDLYIESVHNARDTYSDILTHGT", "soluble fraction (log2)": -0.0043}, {"sequence": "HMDSSSYSAKVGTLIQETRQARGMTQAQLAQALGTSQSAINRIEKGGQNISLDMLNRISEVLSSQIVTLNP", "soluble fraction (log2)": -0.0626}, {"sequence": "HMDSVAKSFLAEIERFLETAGLEPTTLGKQALGDPSFVFDLRKGRSPSTRTIGKLRVWMQQQNALS", "soluble fraction (log2)": -1.2}, {"sequence": "HMDSVTLGISFNGKTRFTLDFPADAAAADIEKAALEAEQSQRYLEGMTVAKVIVVPGRIVNIVLK", "soluble fraction (log2)": -0.501}, {"sequence": "HMDSVTMYATTGVNVRSGPSTSYSIVGGLDRGDKVTRIGTSGNWTKVVWGNGSAYVFSKYLQTGY", "soluble fraction (log2)": -1.81}, {"sequence": "HMDTAEQNWRLRGKLVTLGLNARQIRMALASHAPRYLEDNIAVVERDLAAGKVRNLPAYLLAALREDYRP", "soluble fraction (log2)": -1.67}, {"sequence": "HMDTEIGDILALRQIMELLDEKDRQLIIMRYFQGLTQSVTAKNLNMTQVQVSRREKKLLTFMREQLL", "soluble fraction (log2)": -0.739}, {"sequence": "HMDTEVVMINVVGMNIDKAKNSLNHKNILYKISYQDVSEGENNVVLKQSISSNTKIKKGQVVSLVVGKLN", "soluble fraction (log2)": 0.352}, {"sequence": "HMDTFEITVEESDIDKRIDLFLAGNLESFSRSYIQDLIKKGKATISGKPVKANYRLREGDSVVLSIPKPK", "soluble fraction (log2)": -0.227}, {"sequence": "HMDTGKLQSLVGSRGVAHTVLRPSGKVMIGDDVYPAVAETGFIPRGTAIVVRREEQGQLYVVEARK", "soluble fraction (log2)": 0.179}, {"sequence": "HMDTGPISGQVEADRVEVHGHLDGKISAQNVVVGQTGVVKGDIEFGENLRTEEGADIEGYIK", "soluble fraction (log2)": -0.149}, {"sequence": "HMDTGPSFATRRQEAFNALTQIAASNKEFMNVAGDVLWKVADFPEAQILAQRWRRIIPPNVLGEA", "soluble fraction (log2)": -0.193}, {"sequence": "HMDTIAEFIAELTPLEQKVFHVYYEKGQSLKDTAQQAEITSTSARGALDRIRAKGRHFHLAVILFIG", "soluble fraction (log2)": -0.622}, {"sequence": "HMDTINEYERNILSLITSKPGISAVQIAADTDKSIITAKRGIKTLVDGKLIEYRGSKKTGGYFLLTQS", "soluble fraction (log2)": -0.371}, {"sequence": "HMDTIYMVVAKNIKYYRLIKSMSKKDLAEAVNVTPMAISNYENGKRKPEIDILKKIANVLGVRVVDFLTVR", "soluble fraction (log2)": -1.73}, {"sequence": "HMDTKLFNYGVGKHAYISWNEGGKRTAYIGFGNDGADVLTINNVKQGGSLGIYKDKITLNSQTVLTD", "soluble fraction (log2)": -0.0296}, {"sequence": "HMDTLHGRILEEFSRKIVDGTWPPGFSLPKETELADQYGVSRMTMNKVLTRLASDGFVIRRKRSGTVVAQP", "soluble fraction (log2)": -1.21}, {"sequence": "HMDTLTRAMVWTIIARAEGVDTTGGATWYAKAQEWVTAKGISDGENPNAAITRQELVTMLYRLAGEPAV", "soluble fraction (log2)": -2.78}, {"sequence": "HMDTMQQESMDTKSILATALMELTSRKNFAKITIADITHVSGFNRQTFYYHFRDKYELLSWIY", "soluble fraction (log2)": 0.0516}, {"sequence": "HMDTNRIIGNKIYQLRRSINMTQQELAEKVGISVTFLSEIENGRKSMSVDTLIKLSKGLQVSLDTIVF", "soluble fraction (log2)": -1.46}, {"sequence": "HMDTPVYYYVNGNGVRMRKDASLESDILILLYKGTKVEYVDVKGEWIKVKYNNEIGYIRNDLLSAEMPD", "soluble fraction (log2)": -0.0872}, {"sequence": "HMDTQITPNKAKEIALAHAGVTEAAANFKKIKLDNKNGKSIYEIEFIANKSRYEFIVDAKNGSIIKFEK", "soluble fraction (log2)": 0.0656}, {"sequence": "HMDTRKEREIALYEAALRLIASGVNPAAMKVQQIADEAGIGKGTVYEYFASKEEILHGMALH", "soluble fraction (log2)": -0.241}, {"sequence": "HMDTTLFGLFQNVILTQEDYEELSRTIVEDLDGLIDRLSAYMTSTGKTYKNHKATLLSWYLQDEKKFK", "soluble fraction (log2)": -1.82}, {"sequence": "HMDTVEALTEQLKKLDKRGEGQIPAPEFKQYMMNMGGKMTAEELDEMMKVADPGKEGVVNIAEFADAL", "soluble fraction (log2)": 0.35}, {"sequence": "HMDTVEFPVQVNGKVRGKITVAADAGKDAIETAALADEKVLAFLDGATPKKVIVVPGKLVNLVVQPG", "soluble fraction (log2)": 0.435}, {"sequence": "HMDTVSYMSDAVKAGAVTPSHDEEARARYLLYAGFGAILLFLRYEASEPGDIESAIREFMERYGPVTAELY", "soluble fraction (log2)": 0.243}, {"sequence": "HMDTYKGFIFEVVDKYFSPTLNQKIGQAKNKQGIVLLQTKPSFTQDPKVLIEELKLIIDRDNLKA", "soluble fraction (log2)": -0.145}, {"sequence": "HMDVAAQITYAMRTMGVAPIPRNYELFYEAYIGSNPALTKELAALGSKATQEELDELGQQYF", "soluble fraction (log2)": -1.93}, {"sequence": "HMDVFPDESLKAWLIEMGFKLDQKKMNVFTVLRRMLLQTAPSVKEFRILEIVLQQSRRKLKELNDLKKS", "soluble fraction (log2)": -0.0335}, {"sequence": "HMDVKQSAAGVAGRIRFELNRTLTGQGHEKFTSASQAIGPRPAAELARRLFNSGSVVGVHVFANIVTVDLL", "soluble fraction (log2)": -0.051}, {"sequence": "HMDVLKMKVEDLNIGSRTVNSLTAAKIKTVAGLIKKSKESLLELDGMGNKGVEEIILALKKLGLEL", "soluble fraction (log2)": 0.0186}, {"sequence": "HMDVPTEEAILAYNNVPIELAAKFIGWSDITIRYALQEERAPFGMAAQNPKTGTWSYNISPGLLLKYKSGE", "soluble fraction (log2)": -2.11}, {"sequence": "HMDVPVEVFMERIVTALREGRKTTFSELMEGKPERGKVIGTFLALLQLSKGQQIQIHQEQRTGEISIEGGA", "soluble fraction (log2)": -0.315}, {"sequence": "HMDVQTVTVIENVNVRKSASENGQKLGLAYTGEKLELLMKQADGWTRVKYNGETAYVKSDYV", "soluble fraction (log2)": -0.00354}, {"sequence": "HMDVTSLDMLRFLMDQHGLRQQDLSELGSQGVVSEILAGKRELNLRHIGALARRFKVPPEVFLPA", "soluble fraction (log2)": -0.631}, {"sequence": "HMDVYKRQKLRNFIESLFEDAPKNKQTIELKEEMLQNLIDKYNDLVDSGKSSEAAYNIATAS", "soluble fraction (log2)": -0.0392}, {"sequence": "HMDWNPVRDITAHQVLAILQATHIRAPTVAAEAKRTLSSIFQFAVATLRADIDPVWPVRNALPKNKT", "soluble fraction (log2)": 0.00605}, {"sequence": "HMDYARYGLSEKEAELIELIAQGMNNKEISAEIYLSEGTVRNYISELLEKLELRDRTQLAVYYYTHR", "soluble fraction (log2)": -2.71}, {"sequence": "HMDYDDLVPLDARGRLRLDGQDIILAFGRHRGRSIEEVHNHDKSYFDWLVSPAGGLEDEVIATLRERF", "soluble fraction (log2)": -0.607}, {"sequence": "HMDYENGTVKWFNTKKGYGFITRENGEDLFVHFRNIKGRGRRSLNDGEPVTFVVIEGDKGLQADQVSA", "soluble fraction (log2)": -0.025}, {"sequence": "HMDYGSLQRAIENQLEVRNYQKPKKFLTKIIQLMETIMVRHGVMVVGLTGTGKTTVIETLSRSMEQ", "soluble fraction (log2)": -0.302}, {"sequence": "HMDYIGIQAAKEAALKDADISSEQAVFTMAELDNKNNIFYYQIMFTENGTEYRYDIDALTGVIIEKNHFF", "soluble fraction (log2)": -1.96}, {"sequence": "HMDYKLDVNFPEMYLEQIPAEKRAALIQILEQDPRPSYQKDPVRIYGMSYAGMEIHFRVDKETLYVTEVER", "soluble fraction (log2)": -0.996}, {"sequence": "HMDYLSEFITDKVVRADGYSIRKGELSNEFKQWFITNVGTKNPKPKEIHDYMDRKFGKNKNGIWKNVKIKL", "soluble fraction (log2)": -0.38}, {"sequence": "HMDYQEVEFEKLGKEILTKILLDINKKATKKTLKILIDGFNYDSYRSFYIAIGKAQISSDSILELLQH", "soluble fraction (log2)": -0.622}, {"sequence": "HMDYSWNFFIGFSVVDKVAGNLGTIEEIDDKTINTLFLVKNDDEDLIIPATEDFVEKIDAKKRILYLNLPE", "soluble fraction (log2)": -1.56}, {"sequence": "HMDYYASVDQVWRELGLAGPARRALIDDGLFKLSDLRKTSLAAVKELHGMGPNAIRILTTEMKKADLSFR", "soluble fraction (log2)": -2.25}]}]}
